Source: patent US20140037642A1, “METHODS AND COMPOSITIONS RELATING TO INHIBITION OF IGF-1R” (AMGEN INC., priority 2011, published 2014)

Assays:
[1] = target: hu IGF-1R(ECD)-C3-muIgG1Fc (human; mouse); assay: ORIGEN competition with 2 nM Ru-IGF-2 for IGF-1R(ECD)-C3-muFc on beads
[2] = target: hu IGF-1R(ECD)-C3-muIgG1Fc (human; mouse); assay: ORIGEN competition with 1 nM Ru-IGF-1 for IGF-1R(ECD)-C3-muFc on beads

Substance | Ki [1] [nM] | Max (%), maximum level of inhibition at 1 µM antibody [1] [%] | Ki [2] [nM] | Max (%), maximum level of inhibition at 1 µM antibody [2] [%]
murine anti-IGF-1R antibody 1H7 (Santa Cruz Biotechnology) | 13.1 | 99 | 16 | 89
murine anti-IGF-1R antibody αIR3 (Calbiochem) |  |  | 5.3 | 91
